This passage reports Kd results from publication PMC3504642.

One experiment deals with FcεRIα (Homo sapiens) (UniProt P12319). The conditions noted are these: cited from earlier work.
Experiment [1] deals with AF488-Fc (C328A/K367C IgE-Fc Cε3-Cε4 protein labeled with Alexa Fluor 488 at residue 367). In words: other fluorescence titration.

“IgE Fc Fc (Cε2-Cε4) (from UniProt P01854)”: the Kd with FcεRIα (Homo sapiens) was < 1 nM.
In experiment [1], “soluble FcεRI α-chain ectodomain (from UniProt P12319 26-205) (receptor)” came in with a Kd of 22 nM.
